System: Bacillus subtilis
Test: cleaved RNA product abundance (RNA/gDNA barcode ratio) relative to median wild-type variant (ratio to wild type); higher = more accumulation of the downstream cleavage product
Conditions: cleavage site: cggR-gapA (positions -7 to +36 mutated)
Method in brief: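 Cleaved product abundance is expressed as the RNA:gDNA barcode ratio per construct, scaled to the median construct carrying the unmutated site. The constructs were barcoded, mutagenized RNase Y cleavage-site windows in truncated aprE or tetM reporter mRNAs integrated into the B. subtilis chromosome. Cultures grew in LB at 37°C from OD600 0.0003 to 0.3 before cleaved RNA was gel-selected and barcode-sequenced.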

[1] = experiment (reporter, strain, medium): exp 4a: truncated aprE reporter, strain BJT201 with 2% xylose (RNase J1 expressed)
[2] = experiment (reporter, strain, medium): exp 2b: truncated aprE reporter, strain BJT200

## ACAGACGAAGGAGCCGCAATGAATTTATTAAGGGATGAATAATCCCTCAATATAAATATCTCTCACTTATTTAAA
[1]
  cleaved RNA product abundance: 0.786

## ACAGACGAAGGAGCCGCAATGTAGTTATTAAGGGATGAATAATCCCTCAATATAAATATCTCTCACTTATTTAAA
[1]
  cleaved RNA product abundance: 1.43

## ACAGACGAAGGAGCCGCAATTAAGTTATTAAGGGATGAATAATCCCTCAATATAAATATCTCTCACTTATTTAAA
[2]
  cleaved RNA product abundance: 0.955
[1]
  cleaved RNA product abundance: 0.863

## ACAGACGAAGGAGCCGCACACAAGTTATTAAGGGATGAATAATCCCTCAATATAAATATCTCTCACTTATTTAAA
[1]
  cleaved RNA product abundance: 0.483

## ACAGACGAAGGAGCCGCACAGAACTTATTAAGGGATGAATAATCCCTCAATATAAATATCTCTCACTTATTTAAA
[1]
  cleaved RNA product abundance: 0.558

## ACAGACGAAGGAGCCGCACAGAAGATATTAAGGGATGAATAATCCCTCAATATAAATATCTCTCACTTATTTAAA
[1]
  cleaved RNA product abundance: 0.364

## ACAGACGAAGGAGCCGCACAGAAGTAATTAAGGGATGAATAATCCCTCAATATAAATATCTCTCACTTATTTAAA
[1]
  cleaved RNA product abundance: 0.391

## ACAGACGAAGGAGCCGCACAGAAGTCATTAAGGGATGAATAATCCCTCAATATAAATATCTCTCACTTATTTAAA
[1]
  cleaved RNA product abundance: 0.43

## ACAGACGAAGGAGCCGCACAGAAGTGATTAAGGGATGAATAATCCCTCAATATAAATATCTCTCACTTATTTAAA
[2]
  cleaved RNA product abundance: 0.259
[1]
  cleaved RNA product abundance: 0.311

## ACAGACGAAGGAGCCGCACAGAAGTTAATAAGGGATGAATAATCCCTCAATATAAATATCTCTCACTTATTTAAA
[1]
  cleaved RNA product abundance: 0.309

## ACAGACGAAGGAGCCGCACAGAAGTTACTAAGGGATGAATAATCCCTCAATATAAATATCTCTCACTTATTTAAA
[1]
  cleaved RNA product abundance: 0.22

## ACAGACGAAGGAGCCGCACAGAAGTTATAAAGGGATGAATAATCCCTCAATATAAATATCTCTCACTTATTTAAA
[1]
  cleaved RNA product abundance: 0.414

## ACAGACGAAGGAGCCGCACAGAAGTTATCAAGGGATGAATAATCCCTCAATATAAATATCTCTCACTTATTTAAA
[1]
  cleaved RNA product abundance: 0.365

## ACAGACGAAGGAGCCGCACAGAAGTTATTAAAGGATGAATAATCCCTCAATATAAATATCTCTCACTTATTTAAA
[2]
  cleaved RNA product abundance: 0.173
[1]
  cleaved RNA product abundance: 0.177

## ACAGACGAAGGAGCCGCACAGAAGTTATTAACGGATGAATAATCCCTCAATATAAATATCTCTCACTTATTTAAA
[2]
  cleaved RNA product abundance: 0.121
[1]
  cleaved RNA product abundance: 0.197

## ACAGACGAAGGAGCCGCACAGAAGTTATTAAGAGATGAATAATCCCTCAATATAAATATCTCTCACTTATTTAAA
[2]
  cleaved RNA product abundance: 0.134
[1]
  cleaved RNA product abundance: 0.215

## ACAGACGAAGGAGCCGCACAGAAGTTATTAAGAGATGAATAATCCCTCAATATAAATTTCTCTCACTTATTTAAA
[1]
  cleaved RNA product abundance: 0.113

## ACAGACGAAGGAGCCGCACAGAAGTTATTAAGGAATGAATAATCCCTCAATATAAATATCTCTCACTTATTTAAA
[1]
  cleaved RNA product abundance: 0.143

## ACAGACGAAGGAGCCGCACAGAAGTTATTAAGGGAAGAATAATCCCTCAATATAAATATCTCTCACTTATTTAAA
[2]
  cleaved RNA product abundance: 0.452
[1]
  cleaved RNA product abundance: 0.573

## ACAGACGAAGGAGCCGCACAGAAGTTATTAAGGGATGAACAATCCCTCAATATAAATATCTCTCACTTATTTAAA
[1]
  cleaved RNA product abundance: 0.614

## ACAGACGAAGGAGCCGCACAGAAGTTATTAAGGGATGAATAAACCCTCAATATAAATATCTCTCACTTATTTAAA
[2]
  cleaved RNA product abundance: 0.294
[1]
  cleaved RNA product abundance: 0.34

## ACAGACGAAGGAGCCGCACAGAAGTTATTAAGGGATGAATAATACCTCAATATAAATATCTCTCACTTATTTAAA
[2]
  cleaved RNA product abundance: 0.118

## ACAGACGAAGGAGCCGCACAGAAGTTATTAAGGGATGAATAATCACTCAATATAAATATCTCTCACTTATTTAAA
[1]
  cleaved RNA product abundance: 0.125

— the supplement of paper PMC11780869
